Data from patent US20060104978A1, “Methods and compositions for PDGF-C activation and inhibition” (LUDWIG INSTITUTE FOR CANCER RESEARCH, priority 2003, published 2006).

How the values were obtained:
latent PDGF-CC = biological target: T1, latent PDGF-CC (Homo sapiens, UniProt Q9NRA1); test: Cotransfection assay in COS-1 cells: protease plus full-length PDGF-C; type: cell-based; settings: COS-1 conditioned medium, immunoblot, 22 kDa species under reducing conditions
T1 construct: cotransfected with full-length PDGF-C (Li et al, 2000), full-length PDGF-D (Bergsten et al, 2001); expressed in transfected cells; host or cells: COS-1 cells
Excerpt: (§1) A cotransfection assay was established to identify serine proteases able to cleave and activate latent PDGF-CC. Expression plasmids encoding the relevant enzymes and full-length PDGF-C were cotransfected into COS-1 cells, and aliquots of the conditioned media from the transfectants were subjected to SDS-PAGE and immunoblotting using antibodies to the growth factor domain of PDGF-C. […] As a specificity control, the ability of tPA and NT to use full-length PDGF-DD as the substrate in the cotransfection assay was analysed. […] One difference in the latter results, as compared with the results from the cotransfection assay, was that purified tPA generated a second intermediate species of 32 kDa using latent PDGF-CC as the substrate. It is possible that this intermediate is the result of digestion by plasmin contamination in the tPA preparation, since the size of the fragment is similar to that of plasmincleaved PDGF-CC previously reported (Li et al, 2000). […]
To test the endogenous expression of PDGF-CC, subconfluent AG1523 cells and primary fibroblast cultures were cultured in serum-free DMEM overnight. […] In the case of the primary cultures, total protein concentration was measured and normalized (Bradford, 1976). […]

latent PDGF-DD = biological target: T2, latent PDGF-DD (Homo sapiens, UniProt Q9GZP0); test: Cotransfection assay in COS-1 cells: protease plus full-length PDGF-D; type: cell-based; settings: COS-1 conditioned medium, immunoblot
T2 construct: cotransfected with full-length PDGF-C (Li et al, 2000), full-length PDGF-D (Bergsten et al, 2001); expressed in transfected cells; host or cells: COS-1 cells
Excerpt: as §1, with “substrate.” for “substrate. It is possible that this intermediate is the result of digestion by plasmin contamination in the tPA preparation, since the size of the fragment is similar to that of plasmincleaved PDGF-CC previously reported (Li et al, 2000).”
To test the endogenous expression of PDGF-CC, subconfluent AG1523 cells and primary fibroblast cultures were cultured in serum-free DMEM overnight. […] In the case of the primary cultures, total protein concentration was measured and normalized (Bradford, 1976). […] PDGF-C and PDGF-D were detected by immunoblotting using affinity-purified polyclonal rabbit antibodies against PDGF-C (Li et al, 2000) and PDGF-D (Bergsten et al, 2001), respectively. The His6-tagged proteins were detected using an anti-His monoclonal antibody (C-terminal, Invitrogen). tPA was detected using sheep polyclonal antibodies against human tPA (ab9030, Abcam).

T1 sequence (Q9NRA1 23-345): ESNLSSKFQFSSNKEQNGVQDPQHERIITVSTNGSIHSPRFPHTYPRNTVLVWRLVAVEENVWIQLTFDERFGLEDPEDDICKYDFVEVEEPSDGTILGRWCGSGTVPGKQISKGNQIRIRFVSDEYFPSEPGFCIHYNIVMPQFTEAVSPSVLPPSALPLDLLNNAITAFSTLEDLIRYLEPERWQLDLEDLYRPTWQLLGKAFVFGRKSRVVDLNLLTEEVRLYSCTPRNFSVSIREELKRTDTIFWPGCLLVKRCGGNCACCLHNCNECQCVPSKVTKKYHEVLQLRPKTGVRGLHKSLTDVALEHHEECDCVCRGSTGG

B1: neurotrypsin: human neurotrypsin, trypsin-like serine protease cloned from AG1523 cells (protein)
chain: FDSVLNDSLHHSHRHSPPAGPHYPYYLPTQQRPPRTRPPPPLPRFPRPPRALPAQRPHALQAGHTPRPHPWGCPAGEPWVSVTDFGAPCLRWAEVPPFLERSPPASWAQLRGQRHNFCRSPDGAGRPWCFYGDARGKVDWGYCDCRHGSVRLRGGKNEFEGTVEVYASGVWGTVCSSHWDDSDASVICHQLQLGGKGIAKQTPFSGLGLIPIYWSNVRCRGDEENILLCEKDIWQGGVCPQKMAAAVTCSFSHGPTFPIIRLAGGSSVHEGRVELYHAGQWGTVCDDQWDDADAEVICRQLGLSGIAKAWHQAYFGEGSGPVMLDEVRCTGNELSIEQCPKSSWGEHNCGHKEDAGVSCTPLTDGVIRLAGGKGSHEGRLEVYYRGQWGTVCDDGWTELNTYVVCRQLGFKYGKQASANHFEESTGPIWLDDVSCSGKETRFLQCSRRQWGRHDCSHREDVSIACYPGGEGHRLSLGFPVRLMDGENKKEGRVEVFINGQWGTICDDGWTDKDAAVICRQLGYKGPARARTMAYFGEGKGPIHVDNVKCTGNERSLADCIKQDIGRHNCRHSEDAGVICDYFGKKASGNSNKESLSSVCGLRLLHRRQKRIIGGKNSLRGGWPWQVSLRLKSSHGDGRLLCGATLLSSCWVLTAAHCFKRYGNSTRSYAVRVGDYHTLVPEEFEEEIGVQQIVIHREYRPDRSDYDIALVRLQGPEEQCARFSSHVLPACLPLWRERPQKTASNCYITGWGDTGRAYSRTLQQAAIPLLPKRFCEERYKGRFTGRMLCAGNLHEHKRVDSCQGDSGGPLMCERPGESWVVYGVTSWGYGCGVKDSPGVYTKVSAFVPWIKSVTKL
cleavage of latent PDGF-CC by the coexpressed protease (latent PDGF-CC): lacked proteolytic activity toward latent PDGF-CC
cleavage and activation of latent PDGF-DD by the coexpressed protease (latent PDGF-DD): neither of the two enzymes was able to cleave and activate latent PDGF-DD
